T1: monomeric monkey CD48 expressed with a tag consisting of 2 myc and one 6-His epitopes (monkey)
T1 construct: also called mfCD48-mmH; Monomeric monkey CD48-mmH
T1 chain: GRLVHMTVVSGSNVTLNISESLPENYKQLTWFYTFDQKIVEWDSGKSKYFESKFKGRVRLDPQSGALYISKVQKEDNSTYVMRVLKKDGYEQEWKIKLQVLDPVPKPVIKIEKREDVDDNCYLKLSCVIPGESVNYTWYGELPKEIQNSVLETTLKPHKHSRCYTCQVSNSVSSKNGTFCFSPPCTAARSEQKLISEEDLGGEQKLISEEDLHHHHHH

T2: biotinylated dimeric human CD48 protein expressed as a fusion with mouse IgG2a Fc (human, biotinylated)
T2 construct: also called bio-hCD48-mFc; Dimeric human CD48-mFc
T2 chain: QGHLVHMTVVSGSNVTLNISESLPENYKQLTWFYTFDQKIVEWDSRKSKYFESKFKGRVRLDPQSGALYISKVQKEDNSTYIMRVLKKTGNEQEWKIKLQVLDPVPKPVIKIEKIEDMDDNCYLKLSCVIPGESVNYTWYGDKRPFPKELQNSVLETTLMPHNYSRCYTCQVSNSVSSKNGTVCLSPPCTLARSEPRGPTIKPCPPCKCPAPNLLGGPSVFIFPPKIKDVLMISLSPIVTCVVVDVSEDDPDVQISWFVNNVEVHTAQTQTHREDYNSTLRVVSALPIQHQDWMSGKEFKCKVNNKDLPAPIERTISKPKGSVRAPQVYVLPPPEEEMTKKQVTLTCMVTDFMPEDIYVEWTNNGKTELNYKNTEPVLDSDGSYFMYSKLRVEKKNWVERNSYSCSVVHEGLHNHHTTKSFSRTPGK

T3: human CD48 (on primary human peripheral blood mononuclear cells) (human, UniProt P09326 27-220)
T3 sequence: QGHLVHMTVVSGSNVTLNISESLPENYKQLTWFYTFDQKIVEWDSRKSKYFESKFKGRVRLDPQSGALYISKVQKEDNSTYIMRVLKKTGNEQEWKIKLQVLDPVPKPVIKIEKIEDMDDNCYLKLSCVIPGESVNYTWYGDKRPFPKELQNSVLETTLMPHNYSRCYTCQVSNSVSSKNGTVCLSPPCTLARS


What was measured:
[1] = target: T1, monomeric monkey CD48 expressed with a …; assay: competition ELISA; blocks mfCD48-mmH binding to coated h2B4-mFc
Experimental: (§1) The ability of human anti-CD48 monoclonal antibodies to block human CD48 and monkey CD48 binding to the human cognate ligand, human 2B4, was measured using a competition sandwich ELISA (Table 8). Constant amounts of biotinylated dimeric human CD48 protein expressed as a fusion with mouse IgG2a Fc (“bio-hCD48-mFc” [SEQ ID NO: 387]) or monomeric monkey CD48 expressed with a tag consisting of 2 myc and one 6-His epitopes (“mfCD48-mmH” [SEQ ID NO: 386]) were separately titrated with varying amounts of antibodies. These antibody-protein complexes were incubated (1 hr, 25° C.) before being transferred to microtiter plates coated with a dimeric construct expressing the human 2B4 receptor fused to a either human IgG1 (h2B4-hFc [R&D Systems, Inc., Minneapolis, Minn., Cat. No. 1039-2B]) or mouse IgG2a Fc (h2B4-mFc [SEQ ID NO: 389). After a 1 hr at 25° C. the wells were washed and bound human CD48 was detected with streptavidin conjugated with horse-radish peroxidase (HRP), and monkey CD48 was detected with an HRP conjugated anti-myc polyclonal antibody. The ELISA was developed with a TMB solution to produce a colorimetric reaction and quenched with sulfuric acid before reading absorbance at 450 nm on a Victor X5 plate reader. Sigmoidal dose response curves were fit to the data using Prism™ software. […] (Tables 8 and 9, NB=no binding observed)

[2] = target: T1, monomeric monkey CD48 expressed with a …; assay: competition ELISA; blocks mfCD48-mmH binding to coated h2B4-hFc
Experimental: as §1

[3] = target: T2, biotinylated dimeric human CD48 protein …; assay: competition ELISA; blocks bio-hCD48-mFc binding to coated h2B4-hFc
Experimental: as §1

[4] = target: T2, biotinylated dimeric human CD48 protein …; assay: competition ELISA; blocks bio-hCD48-mFc binding to coated h2B4-mFc
Experimental: as §1

[5] = target: T3, human CD48 (on primary human peripheral …); assay: cell-based or functional assay
[6] = target: T3, human CD48 (on primary human peripheral …); assay: cell-based or functional assay; remark: listed apart in the source

Row | IC50 [1] [nM] | IC50 [2] [nM] | IC50 [3] [nM] | IC50 [4] [nM] | Inhibition of IFN-gamma Release IC50; Donor 1 [5] [Molar] | Inhibition of IFN-gamma Release IC50; Donor 2 [5] [Molar] | Inhibition of IFN-gamma Release IC50; Donor 4 [5] [Molar] | Inhibition of IFN-gamma Release IC50; Donor 5 [5] [Molar] | Inhibition of IFN-gamma Release IC50; Donor 6 [6] [Molar] | Inhibition of IFN-gamma Release IC50; Donor 7 [6] [Molar] | Inhibition of IFN-gamma Release IC50; Donor 3 [5] [Molar] | Binder
1 | 0.0025 | 0.024 | 0.026 | 0.022 | 2.1e-11 | 7.6e-11 | 1.1e-10 | 1.1e-11 | 2.2e-11 | 1e-10 | – | H2M1713N (antibody, mouse IgG2, V domains shown, Human variable domains, mouse IgG2 Fc (H2M)) VH: QVQLVQSGAEVKKPGASVKVSCKASGHTFTNYYIHWVRQAPGQGLEWMGITNPNDGNTRYAQKFQGRISMTWDTSTSTVFMELSSLKSEDTAVYYCAGLRYWFFDLWGRGTPVTVSS VL: DIQMTQSPSSVSASVGDRVTITCRASQDISSWLAWYQQKPGKAPNLLIFAASSLQSGVPSRFSGSGSGTDFTLTISSLQPEDFGTYYCQQTDNFPRTFGQGTKVEIN
2 | 0.062 | 0.24 | 0.064 | 0.029 | 2.7e-11 | 1.1e-10 | 9.5e-11 | 1.9e-11 | 1e-10 | – | 1.9e-10 | H2M1764N (antibody, mouse IgG2, V domains shown, Human variable domains, mouse IgG2 Fc (H2M)) VH: QVQLVESGGGVVQPGRSLRLSCAASGFTFSDYGMHWVRQAPGKGLEWVAVIWNDGSNKNYADSVKGRFSISSDSSKNTLYLHMNSLRAEDTAVYYCARSLYSTSPWYFDLWGRGTLVTVSS VL: not shown
3 | 0.26 | 0.37 | 0.58 | 0.49 | 7.8e-10 | 1.9e-10 | 1.5e-09 | 2.7e-10 | 5e-11 | 1.4e-10 | 1.1e-06 | H2M1710N (antibody, mouse IgG2, V domains shown, Human variable domains, mouse IgG2 Fc (H2M)) VH: QVQLVQSGADMKKPGASVRVSCKASGYTFTDYFIHWVRQAPGQGPEWMGWINPDSGATNYAQQFQGRVTMTRDTSISATYMEMSRLRSDDTAVFYCARDKDGSGWYLDDWGQGTLVTVSS VL: EIVLTQSPATLSLSPGERATLSCRASQSVNIYLAWYQQKPGQAPRLLIYDASNRASGIPARFSGSGSGTDFTLTISSLEPEDFAVYYCQQRSNWPPSITFGQGTRLEIK
4 | 0.0023 | 0.013 | 0.0088 | 0.0055 | 4.9e-11 | 3.4e-11 | 7.5e-11 | 1.9e-11 | 2.6e-11 | 1.8e-11 | 1.3e-10 | H2M1763N (antibody, mouse IgG2, V domains shown, Human variable domains, mouse IgG2 Fc (H2M)) VH: QIQLVQSGAEMKRPGTSVKVSCKASGYTFTSYGINWVRQAPGQGLEWMGWISAYNGDTNYAQKLQGRVTMTTDTSTTTAYMEVRSLRSDDTAVYYCARFLTGTKDYYYGMDVWGQGTTVTVSS VL: DIQMTQSPSSLSASVGDRVTITCQASQDISNFLNWYQQKPGKAPDLLINDASILETGVPSRFSGSGSGTDFTLTINNLQPEDIATYYCQQYDNLPLTFGGGTKVEIK

Reference: patent US20130230533A1 (Regeneron, published 2013)
